pKd: −log10 of the molar value.

By stoichiometry N is commonly meant a count of units in the complex or per binding partner. A word on the pKd: it is the negative decadic logarithm of the Kd, by convention in mol/L. The low end stands for a high Kd, the high end for a low Kd.

The target of assay [1] is Calcium-independent phospholipase A2β, short variant (SH-iPLA2β, 752 amino acids), wild type (Chinese hamster (gene cloned from CHO cells)). The assay is described as follows: AUC; sedimentation velocity, 20 °C, 35,000 rpm, absorbance at 280 nm; 25 mM HEPES 7.5, 500 mM NaCl, 10% glycerol; c(s) model in SEDFIT.
Assay [2] deals with FAM-labeled calmodulin T34C (UniProt P0DP23). The assay is described as follows: fluorescence polarisation; fluorescence anisotropy; 30 nM FAM-CaM with Ca2+, titrated with a twofold dilution series of iPLA2β; 25 mM HEPES 7.5, 150 mM NaCl, 10% glycerol; 15 min at 25 °C.
Assay [3] concerns the target Calcium-independent phospholipase A2β, short variant (SH-iPLA2β, 752 amino acids), wild type (Chinese hamster (gene cloned from CHO cells)).

For “Calcium-independent phospholipase A2β, short variant (SH-iPLA2β, 752 amino acids), wild type (enzyme)”, in assay [1], the stoichiometry N amounted to 2. Further, the negative logarithm of the Kd (pKd) in assay [2] was 6.95.

In the case of “Calmodulin (CaM), unmodified (from UniProt P0DP23 1-149) (natural protein)”, the Ki of inhibition of iPLA2β enzymatic activity by CaM in the presence of Ca2+ (fluorogenic assay with Pyrene-PC liposomes) in assay [3] turned out to be 23 nM.

In assay [2], iPLA2β W695E mutant (enzyme) had a pKd of less than 5.85.

(Values after PMC5823874.)
